In FireProtDB (doi:10.1021/bi00146a008):

Details: Homo sapiens, pH 2.8, Thermal, DSC, glycine-HCl 50 mM, reversible: yes, whole UniProt chain shown

B1: Lysozyme C wild type, P61626 (protein)
chain: MKALIVLGLVLLSVTVQGKVFERCELARTLKRLGMDGYRGISLANWMCLAKWESGYNTRATNYNAGDRSTDYGIFQINSRYWCNDGKTPGAVNACHLSCSALLQDNIADAVACAKRVVRDPQGIRAWVAWRNRCQNRDVRQYVQGCGV
heat capacity change of unfolding (68.8 °C): 1.58 kcal/mol/K
unfolding enthalpy (calorimetric) (68.8 °C): 120 kcal/mol
Tm: 68.8 °C
heat capacity change of unfolding: 1.58 kcal/mol/K
